Bridge positions count the residues as written; N and C are the ends. Square brackets hold non-standard residues; d marks the D form. Pra = C#CC[C@H](N)C(=O)O
Key:
BMI-1 = biological target: T1, BMI-1 (Homo sapiens, UniProt P35226); assay: Pull-down binding assay in HeLa K cell extract, BMI-1; conditions: azide agarose beads, Western blot
T1 construct: endogenous in cells; host or cells: HeLa K cell extract
T1 sequence (P35226 1-326): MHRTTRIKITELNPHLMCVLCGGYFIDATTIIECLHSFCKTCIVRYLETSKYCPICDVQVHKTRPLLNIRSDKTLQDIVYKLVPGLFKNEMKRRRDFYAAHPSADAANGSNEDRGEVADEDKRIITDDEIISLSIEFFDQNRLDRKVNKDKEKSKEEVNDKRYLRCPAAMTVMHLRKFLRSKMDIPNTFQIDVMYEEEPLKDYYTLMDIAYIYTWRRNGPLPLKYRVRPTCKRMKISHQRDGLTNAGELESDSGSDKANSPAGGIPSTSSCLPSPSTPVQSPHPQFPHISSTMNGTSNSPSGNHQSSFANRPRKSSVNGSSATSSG
Protocol: (§1) HeLa K cell pellet was re-suspended in the extraction buffer (30 mM HEPES pH 7.5, 175 mM NaCl, 2.5 mM MgCl2, 0.25% NP40, 10% glycerol, 1 mM DTT supplied with complete protease inhibitor cocktail (Roche), PhosSTOP phosphatase inhibitors (Roche), 1 mM PMSF, 10 μM MG132) and incubated for 20 min on ice, followed by centrifugation to clear the lysate for 15 min at 4° C. 16,100 g. In the meantime, inhibitor molecules containing the propargyl-Gly-OH (Pra) chemical group were covalently attached to the azide agarose resin (Jena Bioscience) by Cu(I)-catalysed azide-alkyne cycloaddition reaction. Specifically, the inhibitor molecules were mixed with azide agarose resin in ratio 0.125 μmol inhibitor/20 μl agarose resin. The reaction was catalysed by 0.1 mM CuSO4, 0.5 mM THPTA (Sigma-Aldrich) and 5 mM Sodium ascorbate and was performed on the rotating wheel for 30 min at room temperature in the volume of 1 ml. Subsequently, the resin was washed five times with the extraction buffer. The inhibitor-agarose resin was added to 2 mg of HeLa K cell extract and incubated at 4° C. for 2 h. Afterwards, the resin was washed four times with the extraction buffer. Pull-down proteins were eluted by incubation with pre-warmed 1×LDS sample buffer for 10 min at room temperature followed by taking supernatant supplemented with 100 mM DTT and boiling for 10 min. […]

RBX1 = biological target: T2, RBX1 (Homo sapiens, UniProt P62877); assay: Pull-down binding assay in HeLa K cell extract, RBX1; conditions: azide beads, Western blot
T2 construct: endogenous in cells; host or cells: HeLa K cell extract
Protocol: (§2) For the protein transfer, the 0.45 μm Immobilon-FL PVDF membrane (Merck Millipore) was used. The membrane was activated in ethanol and then transferred to the Blotting buffer (50 mM SDS-MOPS, 50 mM Tris base, 0.1% SDS, 1 mM EDTA, 20% EtOH). The proteins were transferred using a wet transfer for 1.5 h at 400 mA. Subsequently, the membrane was incubated with the blocking solution, 10% milk in PBS-T (0.02% Tween-20 in PBS), for 1 h at room temperature. To detect proteins of the interest, the membrane was incubated with primary antibodies overnight at 4° C. Followed by washing the membrane 3 times 10 min with PBS-T and incubation with IRDye fluorescently labelled secondary antibodies for 1 h. Prior detection, the membrane was twice washed with PBS-T for 10 min and once with PBS for 10 min. The detection was done using the quantitative near-infrared scanning system Odyssey (LI-COR Biosciences).
HeLa K cell pellet was re-suspended in the extraction buffer (30 mM HEPES pH 7.5, 175 mM NaCl, 2.5 mM MgCl2, 0.25% NP40, 10% glycerol, 1 mM DTT) supplemented with 10 μM MG132 (VWR), 1 mM PMSF (Sigma-Aldrich), complete protease inhibitor cocktail (Roche) and PhosSTOP phosphatase inhibitors (Roche) and incubated for 20 min on ice, followed by centrifugation of cell debris for 15 min at 4° C. 16 100 g. […]

BRCA1 = biological target: T3, BRCA1 (Homo sapiens, UniProt P38398); assay: Pull-down binding assay in HeLa K cell extract, BRCA1; conditions: azide agarose beads, Western blot
T3 construct: endogenous in cells; host or cells: HeLa K cell extract
Protocol: as §1

TRAF2 = biological target: T4, TRAF2 (Homo sapiens, UniProt Q12933); assay: Pull-down binding assay in HeLa K cell extract, TRAF2; conditions: azide agarose beads, Western blot
T4 construct: endogenous in cells; host or cells: HeLa K cell extract
T4 sequence (Q12933 1-501): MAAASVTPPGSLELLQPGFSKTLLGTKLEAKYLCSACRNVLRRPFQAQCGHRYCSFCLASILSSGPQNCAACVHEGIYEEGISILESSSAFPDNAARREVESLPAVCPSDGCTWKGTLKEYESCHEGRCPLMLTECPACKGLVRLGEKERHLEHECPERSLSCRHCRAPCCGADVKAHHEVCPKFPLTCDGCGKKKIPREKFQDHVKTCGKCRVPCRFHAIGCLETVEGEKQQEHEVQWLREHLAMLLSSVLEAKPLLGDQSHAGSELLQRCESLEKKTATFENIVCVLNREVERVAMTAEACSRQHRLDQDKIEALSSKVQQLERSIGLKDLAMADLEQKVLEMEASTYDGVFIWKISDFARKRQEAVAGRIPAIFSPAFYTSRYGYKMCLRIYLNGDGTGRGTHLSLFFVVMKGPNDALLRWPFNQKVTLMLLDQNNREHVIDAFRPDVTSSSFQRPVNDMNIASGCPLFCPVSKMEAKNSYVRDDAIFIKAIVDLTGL
Protocol: as §1

APC/C (APC11) = biological target: T5, APC/C (APC11) (Homo sapiens, UniProt Q9NYG5); assay: Pull-down binding assay in HeLa K cell extract, APC/C; conditions: Pra peptide clicked to azide agarose or magnetic beads, Western blot
T5 construct: endogenous in cells; host or cells: HeLa K cell extract
Protocol: as §2
HeLa K cell pellet was re-suspended in the extraction buffer (30 mM HEPES pH 7.5, 175 mM NaCl, 2.5 mM MgCl2, 0.25% NP40, 10% glycerol, 1 mM DTT) supplemented with 10 μM MG132 (VWR), 1 mM PMSF (Sigma-Aldrich), complete protease inhibitor cocktail (Roche) and PhosSTOP phosphatase inhibitors (Roche) and incubated for 20 min on ice, followed by centrifugation of cell debris for 15 min at 4° C. 16 100 g. In mean time, inhibitor molecules containing Propargyl (Pra) chemical group were covalently attached to the azide agarose or azide magnetic resin (Jena Bioscience) by Cu(I)-catalysed azide-alkyne cycloaddition reaction. Specifically, the inhibitor molecules were mixed with azide agarose resin in ratio 0.125 μmol inhibitor/25 μl agarose resin and azide magnetic resin in ratio 0.018 μmol inhibitor/20 μl magnetic resin. The reaction was catalysed by 1 mM CuSO4, 0.1 mM TBTA (Sigma-Aldrich) and 1 mM Sodium ascorbate and was performed on the rotating wheel for 30 min at room temperature in the volume of 1 ml. Subsequently, the resin was washed 5 times with the extraction buffer. The inhibitor-agarose resin was added to 1 mg of HeLa K cell extract and the inhibitor-magnetic resin was added to 0.5 mg of HeLa K cell extract followed by incubation at 4° C. for 2 h. Followed by washing the resin 5 times with the extraction buffer. Pull-down proteins were eluted by boiling for 15 min with 1×LDS sample buffer supplemented with 100 mM DTT (agarose resin) or by incubation with 1×LDS sample buffer for 10 min at room temperature followed by taking supernatant that was supplemented with 100 mM DTT and boiling it for 10 min. Samples were subjected to SDS PAGE and Western blot analysis.
as §1, with “ml.” for “ml. Subsequently, the resin was washed five times with the extraction buffer. The inhibitor-agarose resin was added to 2 mg of HeLa K cell extract and incubated at 4° C. for 2 h. Afterwards, the resin was washed four times with the extraction buffer. Pull-down proteins were eluted by incubation with pre-warmed 1×LDS sample buffer for 10 min at room temperature followed by taking supernatant supplemented with 100 mM DTT and boiling for 10 min.”

MDM2 = biological target: T6, MDM2 (Homo sapiens, UniProt Q00987); assay: Pull-down binding assay in HeLa K cell extract, MDM2; conditions: azide agarose beads, Western blot
T6 construct: endogenous in cells; host or cells: HeLa K cell extract
Protocol: as §1

c-CBL = biological target: T7, c-CBL (Homo sapiens, UniProt P22681); assay: Pull-down binding assay in HeLa K cell extract, c-CBL; conditions: azide agarose beads, Western blot
T7 construct: endogenous in cells; host or cells: HeLa K cell extract
Protocol: as §1

c-IAP1 = biological target: T8, c-IAP1 (Homo sapiens, UniProt Q13490); assay: Pull-down binding assay in HeLa K cell extract, c-IAP1; conditions: azide agarose beads, Western blot
T8 construct: endogenous in cells; host or cells: HeLa K cell extract
Protocol: as §1

T3 sequence (P38398 whole entry): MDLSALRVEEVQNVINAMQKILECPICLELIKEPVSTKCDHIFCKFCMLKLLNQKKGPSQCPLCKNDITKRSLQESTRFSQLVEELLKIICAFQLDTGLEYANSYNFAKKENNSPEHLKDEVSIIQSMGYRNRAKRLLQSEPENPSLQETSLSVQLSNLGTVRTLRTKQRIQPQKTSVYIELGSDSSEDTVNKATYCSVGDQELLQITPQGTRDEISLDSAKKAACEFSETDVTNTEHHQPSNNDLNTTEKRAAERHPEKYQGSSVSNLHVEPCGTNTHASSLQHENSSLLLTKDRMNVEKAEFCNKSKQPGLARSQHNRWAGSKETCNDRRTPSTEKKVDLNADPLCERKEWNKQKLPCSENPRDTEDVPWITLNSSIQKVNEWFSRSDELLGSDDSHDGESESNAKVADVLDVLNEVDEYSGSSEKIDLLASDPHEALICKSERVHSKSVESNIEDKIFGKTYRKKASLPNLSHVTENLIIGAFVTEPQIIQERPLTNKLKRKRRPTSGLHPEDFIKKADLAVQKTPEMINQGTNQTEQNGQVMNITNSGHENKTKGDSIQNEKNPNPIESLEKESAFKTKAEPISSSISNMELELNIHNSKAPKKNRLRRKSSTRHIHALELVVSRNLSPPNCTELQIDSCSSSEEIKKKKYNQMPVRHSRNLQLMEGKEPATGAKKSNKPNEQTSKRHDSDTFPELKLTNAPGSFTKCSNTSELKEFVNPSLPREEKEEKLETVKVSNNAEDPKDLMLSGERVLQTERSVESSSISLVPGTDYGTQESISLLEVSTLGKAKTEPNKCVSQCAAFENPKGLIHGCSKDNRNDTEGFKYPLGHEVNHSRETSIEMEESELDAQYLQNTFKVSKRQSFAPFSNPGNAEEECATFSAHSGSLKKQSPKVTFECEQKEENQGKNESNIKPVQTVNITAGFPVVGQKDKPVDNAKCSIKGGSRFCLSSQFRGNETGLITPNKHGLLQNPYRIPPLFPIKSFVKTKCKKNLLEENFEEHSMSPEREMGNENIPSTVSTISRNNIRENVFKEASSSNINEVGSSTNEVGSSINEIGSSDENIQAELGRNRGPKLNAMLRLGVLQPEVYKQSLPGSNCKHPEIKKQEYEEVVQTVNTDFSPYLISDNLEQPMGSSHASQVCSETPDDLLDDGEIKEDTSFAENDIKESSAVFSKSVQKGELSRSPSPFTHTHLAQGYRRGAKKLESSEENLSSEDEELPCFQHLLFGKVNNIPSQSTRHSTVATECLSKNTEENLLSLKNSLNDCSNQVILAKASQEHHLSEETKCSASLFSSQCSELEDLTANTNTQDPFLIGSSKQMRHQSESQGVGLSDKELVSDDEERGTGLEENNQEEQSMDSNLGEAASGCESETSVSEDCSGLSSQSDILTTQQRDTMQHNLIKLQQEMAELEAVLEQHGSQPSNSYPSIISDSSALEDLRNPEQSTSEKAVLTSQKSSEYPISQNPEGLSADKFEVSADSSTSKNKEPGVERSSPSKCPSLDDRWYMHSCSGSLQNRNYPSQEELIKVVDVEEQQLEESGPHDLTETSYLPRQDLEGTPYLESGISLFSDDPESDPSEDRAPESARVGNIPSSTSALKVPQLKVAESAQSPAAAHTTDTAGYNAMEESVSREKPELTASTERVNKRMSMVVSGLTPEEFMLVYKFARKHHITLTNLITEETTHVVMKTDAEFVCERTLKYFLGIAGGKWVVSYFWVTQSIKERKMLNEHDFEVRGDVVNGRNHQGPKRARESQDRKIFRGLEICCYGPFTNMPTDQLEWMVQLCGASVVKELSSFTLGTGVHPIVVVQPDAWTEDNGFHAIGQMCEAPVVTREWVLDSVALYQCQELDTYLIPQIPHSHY
T2 sequence (P62877 whole entry): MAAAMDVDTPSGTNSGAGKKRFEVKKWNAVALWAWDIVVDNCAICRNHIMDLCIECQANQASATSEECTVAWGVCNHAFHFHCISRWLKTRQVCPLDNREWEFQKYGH
T8 sequence (Q13490 whole entry): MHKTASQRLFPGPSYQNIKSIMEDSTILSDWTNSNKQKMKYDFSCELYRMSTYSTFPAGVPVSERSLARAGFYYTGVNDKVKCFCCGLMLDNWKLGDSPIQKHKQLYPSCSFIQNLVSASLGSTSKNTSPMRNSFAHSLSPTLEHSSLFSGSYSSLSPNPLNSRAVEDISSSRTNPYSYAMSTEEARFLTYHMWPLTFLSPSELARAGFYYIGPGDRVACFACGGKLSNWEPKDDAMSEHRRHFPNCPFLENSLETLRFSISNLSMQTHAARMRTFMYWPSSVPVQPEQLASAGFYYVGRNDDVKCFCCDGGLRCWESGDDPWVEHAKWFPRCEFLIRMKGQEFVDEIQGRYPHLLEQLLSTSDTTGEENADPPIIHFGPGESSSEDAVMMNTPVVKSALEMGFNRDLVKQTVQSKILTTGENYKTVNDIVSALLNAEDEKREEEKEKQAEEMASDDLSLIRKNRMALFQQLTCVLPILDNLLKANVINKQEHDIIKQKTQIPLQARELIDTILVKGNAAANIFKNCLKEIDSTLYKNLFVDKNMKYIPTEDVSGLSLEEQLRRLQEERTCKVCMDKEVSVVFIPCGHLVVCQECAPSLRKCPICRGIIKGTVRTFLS
T6 sequence (Q00987 whole entry): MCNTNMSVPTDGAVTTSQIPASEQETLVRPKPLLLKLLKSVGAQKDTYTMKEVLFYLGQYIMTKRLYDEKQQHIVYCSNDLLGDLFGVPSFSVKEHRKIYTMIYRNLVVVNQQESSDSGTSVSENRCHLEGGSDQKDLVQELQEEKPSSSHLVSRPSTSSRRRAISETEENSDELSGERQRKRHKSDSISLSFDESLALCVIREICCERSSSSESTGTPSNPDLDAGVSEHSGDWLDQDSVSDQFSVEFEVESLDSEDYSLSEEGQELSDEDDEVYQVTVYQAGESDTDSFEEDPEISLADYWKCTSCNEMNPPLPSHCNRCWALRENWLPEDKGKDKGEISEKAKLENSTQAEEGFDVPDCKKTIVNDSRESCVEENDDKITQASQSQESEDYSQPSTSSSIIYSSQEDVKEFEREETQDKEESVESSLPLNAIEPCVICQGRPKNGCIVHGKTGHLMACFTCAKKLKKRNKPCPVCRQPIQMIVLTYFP

binding to BMI-1 (pull-down) (BMI-1): binds
binding to RBX1 (pull-down) (RBX1): binds
binding to BRCA1 (pull-down) (BRCA1): binds
binding to TRAF2 (pull-down) (TRAF2): binds
binding to the APC/C (pull-down) (APC/C (APC11)): binds
binding to MDM2 (pull-down) (MDM2): binds
binding to c-CBL (pull-down) (c-CBL): binds
binding to c-IAP1 (pull-down) (c-IAP1): binds
Substance: Ac-cyclo(3,12)-PraRCHWGPRTFWCR-NH2 (Ac-[Pra]RCHWGPRTFWCR-NH2; disulfide 3-12; SMILES C#CC[C@H](NC(C)=O)C(=O)N[C@@H](CCCNC(=N)N)C(=O)N[C@H]1CSSC[C@@H](C(=O)N[C@@H](CCCNC(=N)N)C(N)=O)NC(=O)[C@H](Cc2c[nH]c3ccccc23)NC(=O)[C@H](Cc2ccccc2)NC(=O)[C@H]([C@@H](C)O)NC(=O)[C@H](CCCNC(=N)N)NC(=O)[C@@H]2CCCN2C(=O)CNC(=O)[C@H](Cc2c[nH]c3ccccc23)NC(=O)[C@H](Cc2c[nH]cn2)NC1=O) [G1-3Pra]

Reference: patent publication US20230391828A1, “REGULATORS OF CELL DIVISION” (TECHNISCHE UNIVERSITÄT DRESDEN, priority 2020, published 2023)
